{
  "source": "patent US11607390B2",
  "about": "“Self-righting systems and related components and methods” (priority 2017, dated 2023)",
  "system": "Micrococcus lysodelkticus cells",
  "assay": "Lysozyme enzyme activity assay",
  "type": "biochemical",
  "details": "micropost tips 80% lysozyme, 20% PEO 200k vs uncompressed",
  "protocol": "[…] assays were performed on the dissolved solution.\nTo measure the activity of lysozyme, the assay provided by Sigma Aldrich was used which measures the amount of lysed Micrococcus lysodelkticus cells. Briefly, a 200 unit/mL Lysozyme solution in 50 mM Potassium Phosphate Buffer was added to a 0.015% [w/v] Micrococcus lysodeiklicus cell suspension in the same buffer. The decrease was recorded in A450 over 5 minutes. Nine micropost tips were fabricated from 80% lysozyme and 20% PEO 200k and dissolved sets of three micropost tips together. Triplicate assays were performed on each dissolved solution for a total of nine tests and the results were compared to the results of a solution made with lysozyme that was not compressed into a micropost tip.",
  "data": [
    {"substance": "lysozyme", "values": [
      {"measurement": "enzymatic activity after the manufacturing process", "value": "maintain their activity"}
    ]}
  ]
}
